Reference: patent US20220010021A1 (Sanofi, published 2022)
Substitutions are numbered along the chain they refer to. Each block holds one binder with its values, some of them ahead of it.

How the values were obtained:
[1] = molecular target: cell surface receptor composed of the tyrosine kinase receptor FGFR1c and co-receptor beta-Klotho (KLB) (human, UniProt P11362 22-822; Q86Z14 1-1044); experiment: cell-based or functional assay
[2] = molecular target: T1, beta-Klotho (KLB) (Homo sapiens (Human), UniProt Q86Z14 1-996); experiment: BLI (Octet) off-rate screening, mAb from supernatant on anti-hIgG Fc sensor, 5 nmol/L KLB;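 also: dissociation followed for 1800 s in D-PBS plus 0.1% BSA, antibody supernatants applied at 25 µg/mL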
T1 construct: also called β-Klotho; not shown: C-terminal His tag of the bought R&D Systems protein
T1 sequence: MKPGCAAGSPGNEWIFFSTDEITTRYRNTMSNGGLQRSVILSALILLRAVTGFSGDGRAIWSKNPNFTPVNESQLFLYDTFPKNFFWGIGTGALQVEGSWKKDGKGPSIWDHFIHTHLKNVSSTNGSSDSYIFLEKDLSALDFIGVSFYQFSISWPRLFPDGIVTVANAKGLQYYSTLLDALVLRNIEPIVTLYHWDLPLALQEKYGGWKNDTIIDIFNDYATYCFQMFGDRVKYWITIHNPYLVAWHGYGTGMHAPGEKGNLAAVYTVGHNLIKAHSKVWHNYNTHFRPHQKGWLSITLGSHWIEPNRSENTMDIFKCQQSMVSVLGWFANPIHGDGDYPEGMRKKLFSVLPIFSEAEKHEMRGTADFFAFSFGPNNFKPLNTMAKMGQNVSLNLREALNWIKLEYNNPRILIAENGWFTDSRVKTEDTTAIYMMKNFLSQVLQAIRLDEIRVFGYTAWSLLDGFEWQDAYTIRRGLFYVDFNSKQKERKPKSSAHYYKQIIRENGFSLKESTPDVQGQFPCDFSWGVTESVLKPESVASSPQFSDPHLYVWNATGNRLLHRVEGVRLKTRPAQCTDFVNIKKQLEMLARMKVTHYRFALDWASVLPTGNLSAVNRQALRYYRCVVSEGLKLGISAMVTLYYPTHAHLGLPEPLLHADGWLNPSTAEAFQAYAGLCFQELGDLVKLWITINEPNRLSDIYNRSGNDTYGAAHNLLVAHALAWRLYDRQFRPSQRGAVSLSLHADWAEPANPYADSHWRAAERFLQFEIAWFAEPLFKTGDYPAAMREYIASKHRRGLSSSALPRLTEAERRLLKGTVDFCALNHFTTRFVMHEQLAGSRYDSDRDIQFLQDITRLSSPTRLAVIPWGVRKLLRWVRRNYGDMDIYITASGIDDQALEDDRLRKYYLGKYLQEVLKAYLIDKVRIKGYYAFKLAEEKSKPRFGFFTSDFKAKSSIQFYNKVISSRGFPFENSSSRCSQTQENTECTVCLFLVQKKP

[3] = molecular target: T2, human beta-Klotho (KLB) (human, UniProt Q86Z14 53-997); experiment: SPR;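 also: Anti-KLB antibodies captured on anti-human Fc CM5 chip, KLB injected as analyte, 180 s association and 1800 s dissociation, fitted to 1:1 binding model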
T2 construct: bought protein; also called human KLB
T2 sequence (looked up): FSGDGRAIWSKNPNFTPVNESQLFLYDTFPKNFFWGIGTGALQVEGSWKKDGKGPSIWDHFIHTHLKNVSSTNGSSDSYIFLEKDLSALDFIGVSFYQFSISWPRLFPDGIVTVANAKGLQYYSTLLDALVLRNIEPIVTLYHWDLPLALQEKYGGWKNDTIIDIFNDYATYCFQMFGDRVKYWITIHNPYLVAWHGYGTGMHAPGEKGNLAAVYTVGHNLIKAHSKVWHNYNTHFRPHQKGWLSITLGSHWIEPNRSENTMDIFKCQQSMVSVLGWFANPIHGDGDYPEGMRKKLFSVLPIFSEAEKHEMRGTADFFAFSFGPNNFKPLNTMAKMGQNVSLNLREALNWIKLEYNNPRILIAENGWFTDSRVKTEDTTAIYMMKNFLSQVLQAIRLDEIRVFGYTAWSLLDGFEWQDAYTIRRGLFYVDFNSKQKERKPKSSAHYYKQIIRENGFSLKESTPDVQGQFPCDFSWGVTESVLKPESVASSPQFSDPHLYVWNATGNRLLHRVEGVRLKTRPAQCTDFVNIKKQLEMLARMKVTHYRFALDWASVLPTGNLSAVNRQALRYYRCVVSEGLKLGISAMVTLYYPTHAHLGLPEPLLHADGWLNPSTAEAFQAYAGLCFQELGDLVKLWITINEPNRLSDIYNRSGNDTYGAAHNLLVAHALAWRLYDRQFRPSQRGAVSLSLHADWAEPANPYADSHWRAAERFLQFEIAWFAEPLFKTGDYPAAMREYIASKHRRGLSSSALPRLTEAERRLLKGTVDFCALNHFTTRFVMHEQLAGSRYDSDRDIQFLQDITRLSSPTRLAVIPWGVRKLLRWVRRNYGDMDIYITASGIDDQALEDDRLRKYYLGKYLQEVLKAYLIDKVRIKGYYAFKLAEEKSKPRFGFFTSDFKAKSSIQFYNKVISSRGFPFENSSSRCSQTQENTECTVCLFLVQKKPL

[4] = molecular target: human FGFR1c + KLB receptor complex on HEK293 iLite FGF21 reporter cells (human, UniProt P11362 22-822; Q86Z14 1-1044); experiment: cell-based or functional assay
Chain of human FGFR1c + KLB receptor complex on HEK293 iLite FGF21 reporter cells (P11362 22-822, chain 1 of 2): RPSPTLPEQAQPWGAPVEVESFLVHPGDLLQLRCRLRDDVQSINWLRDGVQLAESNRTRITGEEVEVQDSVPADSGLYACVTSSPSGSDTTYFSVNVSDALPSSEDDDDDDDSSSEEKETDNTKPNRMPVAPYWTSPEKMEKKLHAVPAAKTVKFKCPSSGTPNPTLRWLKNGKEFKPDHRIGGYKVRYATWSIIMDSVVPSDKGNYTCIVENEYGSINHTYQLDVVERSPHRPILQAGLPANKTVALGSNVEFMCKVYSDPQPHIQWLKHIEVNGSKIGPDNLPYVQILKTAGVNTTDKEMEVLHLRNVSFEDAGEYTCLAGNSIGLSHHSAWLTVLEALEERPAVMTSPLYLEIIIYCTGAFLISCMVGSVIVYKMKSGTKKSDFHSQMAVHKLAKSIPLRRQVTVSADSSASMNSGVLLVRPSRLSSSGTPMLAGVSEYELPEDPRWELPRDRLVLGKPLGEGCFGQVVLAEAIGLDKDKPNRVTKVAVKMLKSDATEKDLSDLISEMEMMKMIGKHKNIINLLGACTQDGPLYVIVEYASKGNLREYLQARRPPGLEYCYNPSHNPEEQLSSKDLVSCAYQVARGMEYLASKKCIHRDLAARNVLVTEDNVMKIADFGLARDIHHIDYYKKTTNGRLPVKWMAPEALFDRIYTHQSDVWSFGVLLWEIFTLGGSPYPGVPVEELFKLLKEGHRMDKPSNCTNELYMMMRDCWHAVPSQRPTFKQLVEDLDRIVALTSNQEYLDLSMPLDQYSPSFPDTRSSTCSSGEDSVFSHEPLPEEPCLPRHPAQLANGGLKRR
Chain of human FGFR1c + KLB receptor complex on HEK293 iLite FGF21 reporter cells (Q86Z14 whole entry, chain 2 of 2): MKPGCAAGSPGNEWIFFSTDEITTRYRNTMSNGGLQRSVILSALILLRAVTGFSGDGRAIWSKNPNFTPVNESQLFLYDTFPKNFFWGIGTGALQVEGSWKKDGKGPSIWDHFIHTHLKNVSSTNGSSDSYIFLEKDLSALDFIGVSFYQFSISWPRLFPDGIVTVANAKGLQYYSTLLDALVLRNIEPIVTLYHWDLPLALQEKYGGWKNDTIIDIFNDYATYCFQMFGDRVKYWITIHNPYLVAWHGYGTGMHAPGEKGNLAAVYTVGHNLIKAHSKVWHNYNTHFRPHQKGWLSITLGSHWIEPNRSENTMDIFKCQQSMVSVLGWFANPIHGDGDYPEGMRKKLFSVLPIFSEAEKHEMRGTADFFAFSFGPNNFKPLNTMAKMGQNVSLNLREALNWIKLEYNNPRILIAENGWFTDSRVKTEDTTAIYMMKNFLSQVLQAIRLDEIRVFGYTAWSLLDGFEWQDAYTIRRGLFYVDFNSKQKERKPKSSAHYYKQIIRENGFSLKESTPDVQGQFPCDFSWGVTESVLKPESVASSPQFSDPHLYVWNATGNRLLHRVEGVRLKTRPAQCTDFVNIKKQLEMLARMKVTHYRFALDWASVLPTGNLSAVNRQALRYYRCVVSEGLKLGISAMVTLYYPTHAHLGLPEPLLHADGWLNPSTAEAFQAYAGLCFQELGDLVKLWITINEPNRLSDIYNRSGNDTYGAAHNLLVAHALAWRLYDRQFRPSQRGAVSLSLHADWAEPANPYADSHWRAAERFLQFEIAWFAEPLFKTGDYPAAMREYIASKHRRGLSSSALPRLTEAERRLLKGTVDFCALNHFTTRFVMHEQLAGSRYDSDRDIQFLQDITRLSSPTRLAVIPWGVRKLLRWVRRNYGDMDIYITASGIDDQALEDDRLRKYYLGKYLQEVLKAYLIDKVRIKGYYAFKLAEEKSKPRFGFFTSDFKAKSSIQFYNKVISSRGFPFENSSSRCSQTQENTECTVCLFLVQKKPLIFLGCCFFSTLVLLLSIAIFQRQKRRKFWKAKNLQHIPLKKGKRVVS

Chain of cell surface receptor composed of the tyrosine kinase receptor FGFR1c and co-receptor beta-Klotho (KLB) (P11362 22-822, one chain of several): as the sequence (P11362 22-822, chain 1 of 2) above

Mean E max, Luciferase gene reporter assay [1]: 100% | Mean EC50, Luciferase gene reporter assay [1]: 0.146 nM | koff [2]: 6.8e-05 s⁻¹
B1: 16H7 variant with light chain substitution S94G (antibody, human IgG4 S228P, lambda, V domains shown)
VH: not shown
VL: SYVLTQPPSVSVAPGQTARITCGGNNIGSESVHWYQQKPGQAPVLVVYDDSDRPSGIPERFSGSNSGNTATLTISRVEAGDEADYYCQVWDGNGDHVVFGGGTKLTVLG
notes: IgG4 backbone was used

Mean E max, Luciferase gene reporter assay [1]: 8% | koff [2]: 1.4e-05 s⁻¹
B2: 16H7 variant with light chain substitution D95M (antibody, human IgG4 S228P, lambda, V domains shown)
VH: not shown
VL: B1 VL with G94S, D95M
notes: IgG4 backbone was used

Mean E max, Luciferase gene reporter assay [1]: 102% | Mean EC50, Luciferase gene reporter assay [1]: 0.097 nM | koff [2]: 3e-05 s⁻¹
B3: 16H7 variant with light chain substitution H96S (antibody, human IgG4 S228P, lambda, V domains shown)
VH: not shown
VL: B1 VL with G94S, H96S
notes: IgG4 backbone was used

Mean E max, Luciferase gene reporter assay [1]: 104% | Mean EC50, Luciferase gene reporter assay [1]: 0.106 nM | koff [2]: 5e-05 s⁻¹
B4: 16H7 variant with light chain substitution H96Q (antibody, human IgG4 S228P, lambda, V domains shown)
VH: not shown
VL: B1 VL with G94S, H96Q
notes: IgG4 backbone was used

Mean E max, Luciferase gene reporter assay [1]: 101% | Mean EC50, Luciferase gene reporter assay [1]: 0.108 nM | koff [2]: 7.5e-06 s⁻¹
B5: 16H7 variant with light chain substitution N93A (antibody, human IgG4 S228P, lambda, V domains shown)
VH: not shown
VL: B1 VL with N93A, G94S
notes: IgG4 backbone was used

Mean E max, Luciferase gene reporter assay [1]: 103% | Mean EC50, Luciferase gene reporter assay [1]: 0.155 nM | koff [2]: 0.00012 s⁻¹
B6: 16H7 variant with light chain substitution H96W (antibody, human IgG4 S228P, lambda, V domains shown)
VH: not shown
VL: B1 VL with G94S, H96W
notes: IgG4 backbone was used

Mean E max, Luciferase gene reporter assay [1]: 12% | koff [2]: 0.0002 s⁻¹
B7: 16H7 variant with light chain substitution D95A (antibody, human IgG4 S228P, lambda, V domains shown)
VH: not shown
VL: B1 VL with G94S, D95A
notes: IgG4 backbone was used

Mean E max, Luciferase gene reporter assay [1]: 4% | koff [2]: 0.00013 s⁻¹
B8: 16H7 variant with light chain substitution D95Y (antibody, human IgG4 S228P, lambda, V domains shown)
VH: not shown
VL: B1 VL with G94S, D95Y
notes: IgG4 backbone was used

Mean E max, Luciferase gene reporter assay [1]: 4% | koff [2]: 0.00016 s⁻¹
B9: 16H7 variant with light chain substitution D95I (antibody, human IgG4 S228P, lambda, V domains shown)
VH: not shown
VL: B1 VL with G94S, D95I
notes: IgG4 backbone was used

Mean E max, Luciferase gene reporter assay [1]: 110% | Mean EC50, Luciferase gene reporter assay [1]: 0.11 nM | koff [2]: 1.8e-05 s⁻¹
B10: 16H7 variant with light chain substitution H96T (antibody, human IgG4 S228P, lambda, V domains shown)
VH: not shown
VL: B1 VL with G94S, H96T
notes: IgG4 backbone was used

Mean E max, Luciferase gene reporter assay [1]: 100% | Mean EC50, Luciferase gene reporter assay [1]: 0.186 nM | koff [2]: 5e-05 s⁻¹
B11: 16H7 variant with light chain substitution N93R (antibody, human IgG4 S228P, lambda, V domains shown)
VH: not shown
VL: B1 VL with N93R, G94S
notes: IgG4 backbone was used

Mean E max, Luciferase gene reporter assay [1]: 100% | Mean EC50, Luciferase gene reporter assay [1]: 0.122 nM | koff [2]: 1.1e-05 s⁻¹
B12: 16H7 variant with light chain substitution H96E (antibody, human IgG4 S228P, lambda, V domains shown)
VH: not shown
VL: B1 VL with G94S, H96E
notes: IgG4 backbone was used

Mean E max, Luciferase gene reporter assay [1]: 100% | Mean EC50, Luciferase gene reporter assay [1]: 0.111 nM | koff [2]: 2.2e-05 s⁻¹
B13: 16H7 variant with light chain substitution H96D (antibody, human IgG4 S228P, lambda, V domains shown)
VH: not shown
VL: B1 VL with G94S, H96D
notes: IgG4 backbone was used

Mean E max, Luciferase gene reporter assay [1]: 112% | Mean EC50, Luciferase gene reporter assay [1]: 0.143 nM | koff [2]: 4.4e-05 s⁻¹
B14: 16H7 variant with light chain substitution H96N (antibody, human IgG4 S228P, lambda, V domains shown)
VH: not shown
VL: B1 VL with G94S, H96N
notes: IgG4 backbone was used

Mean E max, Luciferase gene reporter assay [1]: 33% | Mean EC50, Luciferase gene reporter assay [1]: 29.7 nM | koff [2]: 8.1e-06 s⁻¹
B15: 16H7 variant with light chain substitution D95H (antibody, human IgG4 S228P, lambda, V domains shown)
VH: not shown
VL: B1 VL with G94S, D95H
notes: IgG4 backbone was used

Mean E max, Luciferase gene reporter assay [1]: 103% | Mean EC50, Luciferase gene reporter assay [1]: 0.134 nM | koff [2]: 6.9e-05 s⁻¹
B16: 16H7 variant with light chain substitution H96Y (antibody, human IgG4 S228P, lambda, V domains shown)
VH: not shown
VL: B1 VL with G94S, H96Y
notes: IgG4 backbone was used

Mean E max, Luciferase gene reporter assay [1]: 107% | Mean EC50, Luciferase gene reporter assay [1]: 0.148 nM | koff [2]: 5.8e-05 s⁻¹
B17: 16H7 variant with light chain substitution N93C (antibody, human IgG4 S228P, lambda, V domains shown)
VH: not shown
VL: B1 VL with N93C, G94S
notes: IgG4 backbone was used

Mean E max, Luciferase gene reporter assay [1]: 102% | Mean EC50, Luciferase gene reporter assay [1]: 0.095 nM | koff [2]: 0.00014 s⁻¹
B18: 16H7 variant with light chain substitution H96R (antibody, human IgG4 S228P, lambda, V domains shown)
VH: not shown
VL: B1 VL with G94S, H96R
notes: IgG4 backbone was used

Mean E max, Luciferase gene reporter assay [1]: 91% | Mean EC50, Luciferase gene reporter assay [1]: 0.13 nM | koff [2]: 4.1e-05 s⁻¹
B19: 16H7 variant with light chain substitution H96V (antibody, human IgG4 S228P, lambda, V domains shown)
VH: not shown
VL: B1 VL with G94S, H96V
notes: IgG4 backbone was used

koff [3]: 0.00169 s⁻¹ | EC50 [4]: 0.11 nmol/L | Emax [4]: 991%
B20: Ab0364 (antibody, IgG4, V domains shown)
VH: QVTLKESGPVLVKPTETLTLTCTVSGFSLNNARVGVSWIRQPPGKALEWLAHIFSNDEKSYSTSLKSRLTISKDTSKSQVVLTMTNMDPVDTATYYCARSVVTGGYYYEGMDVWGQGTTVTVSS
VL: B1 VL with N25A, D49E, D50E, D91E, N93S, G94S
notes: IgG4 PE

Mean E max, Luciferase gene reporter assay [1]: 98% | Mean EC50, Luciferase gene reporter assay [1]: 0.179 nM | koff [2]: 6.4e-05 s⁻¹
B21: 16H7 variant with light chain substitution H96K (antibody, human IgG4 S228P, lambda, V domains shown)
VH: not shown
VL: B1 VL with G94S, H96K
notes: IgG4 backbone was used

koff [3]: 0.00107 s⁻¹ | EC50 [4]: 0.05 nmol/L | Emax [4]: 863%
B22: Ab0416 (antibody, IgG4, V domains shown)
VH: B20 VH
VL: B1 VL with N25S, D49Y, D50E, D91E, N93E, G94S
notes: IgG4 PE

Mean E max, Luciferase gene reporter assay [1]: 98% | Mean EC50, Luciferase gene reporter assay [1]: 0.176 nM | koff [2]: 0.00013 s⁻¹
B23: 16H7 variant with light chain substitution H96L (antibody, human IgG4 S228P, lambda, V domains shown)
VH: not shown
VL: B1 VL with G94S, H96L
notes: IgG4 backbone was used

Mean E max, Luciferase gene reporter assay [1]: 108% | Mean EC50, Luciferase gene reporter assay [1]: 0.123 nM | koff [2]: 3.8e-05 s⁻¹
B24: 16H7 variant with light chain substitution N93D (antibody, human IgG4 S228P, lambda, V domains shown)
VH: not shown
VL: B1 VL with N93D, G94S
notes: IgG4 backbone was used

koff [3]: 0.000303 s⁻¹ | EC50 [4]: 0.06 nmol/L | Emax [4]: 1110%
B25: Ab0417 (antibody, IgG4, V domains shown)
VH: B20 VH
VL: B1 VL with N25S, D49Y, D50E, D91H, N93E, G94S
notes: IgG4 PE

Mean E max, Luciferase gene reporter assay [1]: 95% | Mean EC50, Luciferase gene reporter assay [1]: 0.13 nM | koff [2]: 0.00015 s⁻¹
B26: 16H7 variant with light chain substitution H96G (antibody, human IgG4 S228P, lambda, V domains shown)
VH: not shown
VL: B1 VL with G94S, H96G
notes: IgG4 backbone was used

Mean E max, Luciferase gene reporter assay [1]: 100% | Mean EC50, Luciferase gene reporter assay [1]: 0.165 nM | koff [2]: 2.2e-06 s⁻¹
B27: 16H7 variant with light chain substitution N93F (antibody, human IgG4 S228P, lambda, V domains shown)
VH: not shown
VL: B1 VL with N93F, G94S
notes: IgG4 backbone was used
